Results published in US20220177835A1, “METHODS OF GENERATING AND ISOLATING MIDBRAIN DOPAMINE NEURONS” (MEMORIAL SLOAN-KETTERING CANCER CENTER, priority 2019, published 2022).

Assays:
rodent GSK3β homologs = settings: cited from earlier work
[1] = system: stem-cell-derived midbrain DA neurons and precursors; experiment: Marker expression in stem-cell-derived mDA differentiation under Wnt-Boost protocol with added FGF; type: cell-based, human
Description: Midbrain DA neurons and precursors thereof were derived from stem cells under a Wnt-Boost protocol previously disclosed (the “7.5 M bump protocol (modification of GMP V2B)” protocol disclosed in International Publication No. WO 2016/196661, which is incorporated by reference in its entirety), which is referred to as “Wnt-Boost protocol” or “Boost protocol” hereinafter. It was discovered that EN1 expression was decreased starting from day 11 of the differentiation with Wnt-Boost protocol (see FIG. 1). Maintaining EN1 expression in the differentiated cells is important to generate mature and functional midbrain DA neurons. Thus, to maintain EN1 expression, the present example tested adding FGF8b treatment to the Wnt-Boost protocol at a late time of differentiation (see FIG. 2). Cells were contacted with FGF8b from day 9 to day 16, from day 10 to day 16, from day 11 to day 16, from day 12 to day 16, from day 13 to day 16, from day 14 to day 16, or from day 15 to day 16, in addition to the Wnt-Boost protocol, were tested. […] EN1 positive cells also expressed FOXA2 and LMX1A. […] SIX1 immuno-staining of the cells on day 30 of differentiation confirmed the mRNA results (see FIG. 5).
FGF8b, FGF17, and FGF18 were tested by being added them to the cell culture from day 12 to day 16 at a concentration of 100 ng/ml under the WNT-Boost protocol.

[2] = system: MEL1 hPSC derived CD49e weak mDAs; experiment: mRNA expression in CD49e sorted cells (WNT-Boost vs WNT-boost+FGF18); type: cell-based, human; settings: WNT-boost+FGF18 (day 12-day 16) vs WNT-Boost
Method: CD49e marker was tested in another hPSC line MEL1 for purifying midbrain DA neuron. Substantially pure mDA morphology was discovered in cells sorted with CD49e (Negative and/or weak expression) on day 25 of differentiation and continuously cultured for another 15 days (day 40 of differentiation) under the WNT-boost protocol and the WNT-boost+FGF18 (day 12-day 16) protocol (see FIGS. 19-20). These sorted mDAs had high TH immune-staining (see FIG. 21).

[3] = system: NURR1:GFP hPSC derived mDAs; experiment: mRNA expression in NURR1:GFP sorted mDAs (WNT-Boost vs WNT-Boost+FGF18); type: cell-based, human; settings: WNT-Boost+FGF18 (day 12-day 16) vs WNT-Boost
Method: NURR1:GFP hPSCs were then cultured under WNT-Boost and WNT-boost+FGF18 (day 12-day 16) protocols. NURR1:GFP positive cells were isolated on day 25 of differentiation followed by continuous culturing until day 40. On day 40 of differentiation, these midbrain DA neurons expressed high TH along with FOXA2 (see FIG. 12).
(§1) These sorted cells were transplanted to immuno-deficient mice.

[4] = system: grafted differentiated cells in mouse; experiment: In vivo graft of differentiated cells (WNT-boost vs WNT-boost+FGF18) into intact mouse
Description: The in vivo survival of differentiated cells generated from WNT-boost+FGF18 protocol was examined. Cells generated from WNT-boost and WNT-boost+FGF18 protocols were grafted into intact mouse […].

[5] = system: grafted NURR1:GFP sorted mDAs; experiment: Transplantation of NURR1:GFP sorted mDAs to immuno-deficient mice; type: in vivo, mouse
Description: as §1

Row | Molecule | IC50 values against rodent GSK3β homologs (rodent GSK3β homologs) | mRNA expression level of SMA ([1]; day 16 of differentiation, 100 ng/ml from day 12 to day 16, compared with FGF8b) | EN1 protein expression (immunostaining) ([1]; day 16 of differentiation, FGF added from day 9-15 to day 16 to Wnt-Boost protocol) | EN1 expression at the mature stage of differentiation ([1]; day 27 and day 40 (FIG. 8)) | expression levels of SMA1 and SIX1 ([1]; mature stage, FGF18 vs FGF8b treated cells) | expression level of PITX2 ([1]; mature stage, compared to cells differentiated by the WNT-Boost protocol) | mRNA expression level of EN1 [2] | mRNA expression level of PITX2 [2] | mRNA expression level of EN1 [3] | striatal innervation with fibers ([4]; 1 month post grafting, WNT-boost+FGF18 vs WNT-boost) | maintenance of EN1 expression in vivo ([4]; cells from WNT-boost+FGF18 protocol vs WNT-boost protocol, grafted) | neurite outgrowth from grafted region ([5]; FGF18 treated cells (WNT-Boost+FGF18 protocol) vs WNT-Boost) | cell survival of graft ([5]; sorted mDAs from WNT-Boost+FGF18 (day 12-day 16) protocol)
1 | Cc1c[nH]c(-c2cnc(NCCNc3ccc(C#N)cn3)nc2-c2ccc(Cl)cc2Cl)n1 [CHIR99021, 6-(2-(4-(2,4-dichlorophenyl)-5-(4-methyl-1H-imidazol-2-yl)pyrimidin-2-ylamino)ethylamino)nicotinonitrile] | nanomolar | – | – | – | – | – | – | – | – | – | – | – | –
2 | FGF18: FGF activator; member of the FGF8 subfamily of secreted signaling proteins (protein, UniProt O76093 28-207, looked up) Fibroblast growth factor 18: EENVDFRIHVENQTRARDDVSRKQLRLYQLYSRTSGKHIQVLGRRISARGEDGDKYAQLLVETDTFGSQVRIKGKETEFYLCMNRKGKLVGKPDGTSKECVFIEKVLENNYTALMSAKYSGWYVGFTKKGRPRKGPKTRENQQDVHFMKRYPKGQPELQKPFKYTTVTKRSRRIRPTHPA | – | reduced mRNA expression level of SMA | highly maintained in a FGF18 contacting duration dependent manner | still highly maintained | less expression levels of SMA1 and SIX1 than FGF8b treated cells | reduced expression level of PITX2 | higher expression level of EN1 | lower expression level of PITX2 | higher expression level of EN1 | better striatal innervation | improved maintenance of EN1 expression in vivo | better neurite outgrowth from grafted region | excellent cell survival
